The conditions of assay [1]: at best, in about 40% of patients (Dworkin, 2002); cited from earlier work.
In assay [2] the target is T1, Nav 1.7 peptide B11.7 (Homo sapiens, UniProt Q15858).
T1 construct: host or cells: synthetic peptide captured on streptavidin plates
The assay can be described thus: Peptide binding ELISA, cyclic Nav 1.7 peptide B11.7. To be noted: biotinylated cyclic peptide on streptavidin plate. The protocol: (§1) Nunc 96 well plates were coated overnight at 4° C. in 5 ug/ml Streptavidin (Jackson 016-000-114) 100 ul/well in carbonate coating buffer. Plates were washed four times in PBS/tween and 200 ul/well of block (1% BSA in PBS) was added for 1 hour at RT. Plates were washed four times in PBS/tween and 100 ul/well of biotinylated peptide at 5 ug/ml was added for 1 hour at RT. Plates were washed four times in PBS/tween and 100 ul/well of antibody added (starting at 10 ug/ml diluting in block in half logs down the plate) for 1 hour at RT. Plates were washed four times in PBS/tween and […] goat anti rabbit Fc HRP (Jackson 111-036-046) added for 1 hour at RT. Plates were washed four times in PBS/tween and 100 ul/well TMB (3,3′,5,5′ Tetramethylbenzidine) solution added. 50 ul/well of NaF was added to stop reaction and absorbance read at 630 nm.
(An ELISA detects its analyte on a solid surface through an enzyme-linked reagent.)

Assay [3] has as its target T2, rat Nav1.7 channels (Rattus norvegicus, UniProt O08562).
T2 construct: expressed in transfected cells; host or cells: HEK cells
Briefly: Automated Patch Clamp analysis of recombinant rat Nav1.7 channels expressed in HEK cells. The class given is cell-based. To be noted: recombinant rat Nav1.7 in HEK cells. From the text:
Automated Patch Clamp analysis of recombinant rat Nav1.7 channels expressed in HEK cells. […] Data points represent the normalized peak current amplitudes after application of a repeated voltage step protocol (end point) in the presence of antibody.
On the technique in general: In patch-clamp work, channel activity is measured electrically.

In assay [4] the target is T3, human Nav1.7 channel (Homo sapiens, UniProt Q15858).
T3 construct: host or cells: HEK293
The assay can be described thus: PatchXpress h Nav1.7 assay (automated Patch Clamp, HEK cells). The class given is cell-based. The settings on record: for dose dependence of inhibition of human Nav1.7 currents: recombinant human Nav1.7 in HEK cells, repeated voltage step protocol, end point. The protocol:
Extracellular solution contained (in mM): 130 NaCl, 4 KCl, 1.5 CaCl2, 1 MgCl2, 30 glucose, 10 HEPES (pH 7.4 with Tris-Base, and 300 to 305 mOsmolar). Intracellular solution contained (in mM): 5 NaCl, 115 CsF, 20 CsCl, […], 10 EGTA free acid (pH 7.2 with CsOH, and 290 to 295 mOsmolar) and was either made fresh or kept frozen. Extracellular and intracellular solutions were filtered prior to use. Antibodies were directly diluted in extracellular solution and were freshly (no more than 15 min) prepared before transfer to a 96-well polypropylene compound plate (Sarsted, #83.1835.500). For the experiments using selective peptide, antibodies and peptides, at equal concentrations, were preincubated at least 30-min at 4° C. prior Patch Clamp experiments.
HEK293 cells stably expressing the human Nav1.7 channel (type IX voltage-gated sodium channel alpha subunit) were purchased from Upstate (Upstate, Millipore, cat.#CYL3011). Cells were cultured in T-75 (BD BioCoat™ Collagen I Cellware, Becton Dickinson Labware, Bedford, Mass., #356485) flasks coated with collagen type I using standard culture medium DMEM-F12 with-Glutamine (Invitrogen, #11320) containing 10% FBS (Lonza, #DE14-802F), 1% penicillin+streptomycin (Lonza, DE17-603E), 1% non essential amino acids (Lonza, BE13-114E) and 400 μg/ml G418 (GIBCO, #10131-027). Cells were plated at a density of 15,000 cells/cm2 or 8,000 cells/cm2 density for 2 or 3 days respectively before being used on PatchXpress® 7000A (Axon instrument, new part of MDS Analytical Technologies). Cells confluence never exceeded 90%. The day of the experiment, cells were harvested using Accumax (Sigma, A7089). Briefly, cells were washed twice in PBS (Lonza, #BE12-516F) without calcium and magnesium, and a 1:4 dilution of Accumax solution was added and incubated for 1.5 to 2-min at 37° C. DMEM-F12 with 15 mMHEPES and L-glutamine (Lonza, #BE12-719F) containing 10% FBS (recovery media) was added to quench Accumax digestion. The cells were subsequently centrifuged at 1,000 rpm for 5-min in 50 ml falcon tube and pellets are resuspended in 10 ml of recovery media. Cells are counted (CoulterZ2) and suspended at ˜0.1 million cells/ml and transferred to a 15 ml screw-cap tube for minimum 90 minutes at room temperature. Cells were then centrifuged for 60-s at 1,000 rpm. The pellet was gently resuspended in 1,000 μl extracellular solution and centrifuged a second time for 30-s at 1,000 rpm. Pellet was resuspended in 150 μL extracellular solution and immediately tested on the PatchXpress®. […]
After 10-s, the pressure was switched from +4 to −30 mmHg to attract suspended cells to each of the 16 holes (electrodes). […] The cell was allowed to dialyze for 5 min, during which the access resistance was monitored. […]

Assay [5] deals with cultured rat dorsal root ganglion (DRG) neurons. Briefly: Dorsal root ganglion in vitro current clamp electrophysiology. The assay is classed as cell-based. The settings on record: 25 μg/ml; for number of evoked action potentials: compared with vehicle or control antibody, administration at time=2 minutes. The protocol:
Dorsal Root Ganglia were isolated from 1-2 wild-type rat pups, aged between postnatal day 1 and 3. Ganglia were washed in PBS after dissection and immediately placed into a DMEM (Lonza, #BE12-604F) solution containing 2 mg/ml collagenase (Sigma-Aldrich, #C2674) and incubated at 37° C. for approximately 45 minutes for enzymatic digestion. Collagenase solution was removed and replaced with DMEM supplemented with 10% Fetal Bovine Serum (Lonza, #DE14802F), 0.5 mM L-Glutamine (Lonza, #BE17-605E), 1% Penicillin/Streptomycin (Lonza, #BE17-603E) and 20 ng/ml nerve growth factor (NGF, Invitrogen). Ganglia were then mechanically triturated, centrifuged at 1000 g for 5 minutes, and resuspended in the same culture medium. Dissociated cells were counted and diluted to a suspension of 100,000-120,000 cells/ml on glass coverslips precoated with 50 μg/ml poly-D-lysine (Sigma) and 30 μg/ml laminin (Invitrogen) and incubated at 37° C., 5% CO2 until ready for use.
Dissociated DRG were taken for use no more than two days in vitro (DIV) following preparation. Cells were visualized on an Olympus BX50WI upright microscope with an Ikegami ICD-42B CCD camera. […] All recordings were acquired using pClamp 10 software (Molecular Devices) and subsequently analyzed in Clampfit 10 (Molecular Devices). […] The liquid junction potential was calculated to be 14.2 mV, all reported voltages have been corrected to compensate.
After formation of a tight seal (>1 GΩ) by release of positive pressure and manual suction in voltage clamp mode, capacitative currents were compensated and the command voltage was set to −70 mV. […] Whole cell parameters were recorded after dialysis. […] The amplifier was switched to current clamp mode and the resting membrane potential was recorded. […]
Cells were subsequently treated either with control or antibody solutions by fast bath perfusion directly on to the recorded cell for 90 seconds to sufficiently fill the recording chamber, at which point both perfusion and aspiration were halted. […]

Assay [6] deals with T4, Mouse domain B loop E1 peptide B11 (Nav 1.7) (Mus musculus, UniProt Q62205).
T4 construct: host or cells: synthetic peptide
Briefly: Peptide binding ELISA, mouse B11 peptide. How it is done:
as §1

The target of assay [7] is T5, Human domain B loop E1 peptide B11 (Nav 1.7) (Homo sapiens, UniProt Q15858).
T5 construct: host or cells: synthetic peptide
Briefly: Peptide binding ELISA, human B11 peptide. The protocol:
as §1

T3 sequence (Q15858 whole entry): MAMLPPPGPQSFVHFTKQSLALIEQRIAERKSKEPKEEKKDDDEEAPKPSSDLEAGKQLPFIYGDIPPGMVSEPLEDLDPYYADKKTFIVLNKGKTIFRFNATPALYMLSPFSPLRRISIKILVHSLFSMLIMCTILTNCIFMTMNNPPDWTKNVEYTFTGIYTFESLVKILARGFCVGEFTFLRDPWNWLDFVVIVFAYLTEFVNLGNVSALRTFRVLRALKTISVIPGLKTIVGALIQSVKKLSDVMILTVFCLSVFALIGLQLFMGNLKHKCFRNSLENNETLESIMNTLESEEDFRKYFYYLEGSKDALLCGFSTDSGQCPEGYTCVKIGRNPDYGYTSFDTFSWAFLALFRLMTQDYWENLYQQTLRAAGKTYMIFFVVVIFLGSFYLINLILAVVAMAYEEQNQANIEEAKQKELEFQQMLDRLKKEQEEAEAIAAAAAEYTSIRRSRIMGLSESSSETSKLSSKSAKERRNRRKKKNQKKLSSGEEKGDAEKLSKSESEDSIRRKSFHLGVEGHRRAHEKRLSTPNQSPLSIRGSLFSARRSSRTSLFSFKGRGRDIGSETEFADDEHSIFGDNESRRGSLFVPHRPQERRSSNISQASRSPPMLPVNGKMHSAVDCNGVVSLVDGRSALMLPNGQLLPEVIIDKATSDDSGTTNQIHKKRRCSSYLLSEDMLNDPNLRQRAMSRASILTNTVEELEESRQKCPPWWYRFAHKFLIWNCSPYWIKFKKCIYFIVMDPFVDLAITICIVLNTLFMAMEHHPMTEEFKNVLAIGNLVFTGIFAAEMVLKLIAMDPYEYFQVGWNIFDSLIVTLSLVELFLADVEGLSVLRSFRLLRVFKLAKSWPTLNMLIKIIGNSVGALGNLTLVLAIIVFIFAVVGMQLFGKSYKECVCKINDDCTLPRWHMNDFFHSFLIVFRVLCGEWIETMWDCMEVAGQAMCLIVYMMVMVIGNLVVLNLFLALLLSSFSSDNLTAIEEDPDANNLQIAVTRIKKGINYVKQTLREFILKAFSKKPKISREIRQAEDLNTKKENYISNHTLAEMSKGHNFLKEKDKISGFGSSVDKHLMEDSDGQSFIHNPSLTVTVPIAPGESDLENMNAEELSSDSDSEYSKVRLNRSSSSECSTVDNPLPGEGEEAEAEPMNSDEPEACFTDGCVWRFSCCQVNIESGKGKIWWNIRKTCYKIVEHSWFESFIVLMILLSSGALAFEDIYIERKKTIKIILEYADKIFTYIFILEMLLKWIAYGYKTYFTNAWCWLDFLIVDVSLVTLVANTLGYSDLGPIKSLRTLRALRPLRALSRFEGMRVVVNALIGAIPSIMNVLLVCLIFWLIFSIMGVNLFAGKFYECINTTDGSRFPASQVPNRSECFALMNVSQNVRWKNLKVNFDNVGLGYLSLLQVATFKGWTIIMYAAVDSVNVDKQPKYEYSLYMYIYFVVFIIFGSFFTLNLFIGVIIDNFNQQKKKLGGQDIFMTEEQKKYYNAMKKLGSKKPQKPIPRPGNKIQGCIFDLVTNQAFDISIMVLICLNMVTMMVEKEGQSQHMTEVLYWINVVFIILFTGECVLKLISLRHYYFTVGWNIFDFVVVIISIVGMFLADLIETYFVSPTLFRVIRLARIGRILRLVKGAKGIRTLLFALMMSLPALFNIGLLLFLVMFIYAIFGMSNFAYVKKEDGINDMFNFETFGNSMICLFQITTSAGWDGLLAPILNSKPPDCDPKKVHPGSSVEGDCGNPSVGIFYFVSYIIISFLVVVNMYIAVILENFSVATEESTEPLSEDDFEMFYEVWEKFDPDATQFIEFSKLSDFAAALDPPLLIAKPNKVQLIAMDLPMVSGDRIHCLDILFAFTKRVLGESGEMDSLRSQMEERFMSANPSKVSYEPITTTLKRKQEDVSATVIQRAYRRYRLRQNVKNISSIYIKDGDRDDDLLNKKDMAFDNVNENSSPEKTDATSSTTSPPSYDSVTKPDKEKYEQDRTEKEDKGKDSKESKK
T2 sequence (O08562 whole entry): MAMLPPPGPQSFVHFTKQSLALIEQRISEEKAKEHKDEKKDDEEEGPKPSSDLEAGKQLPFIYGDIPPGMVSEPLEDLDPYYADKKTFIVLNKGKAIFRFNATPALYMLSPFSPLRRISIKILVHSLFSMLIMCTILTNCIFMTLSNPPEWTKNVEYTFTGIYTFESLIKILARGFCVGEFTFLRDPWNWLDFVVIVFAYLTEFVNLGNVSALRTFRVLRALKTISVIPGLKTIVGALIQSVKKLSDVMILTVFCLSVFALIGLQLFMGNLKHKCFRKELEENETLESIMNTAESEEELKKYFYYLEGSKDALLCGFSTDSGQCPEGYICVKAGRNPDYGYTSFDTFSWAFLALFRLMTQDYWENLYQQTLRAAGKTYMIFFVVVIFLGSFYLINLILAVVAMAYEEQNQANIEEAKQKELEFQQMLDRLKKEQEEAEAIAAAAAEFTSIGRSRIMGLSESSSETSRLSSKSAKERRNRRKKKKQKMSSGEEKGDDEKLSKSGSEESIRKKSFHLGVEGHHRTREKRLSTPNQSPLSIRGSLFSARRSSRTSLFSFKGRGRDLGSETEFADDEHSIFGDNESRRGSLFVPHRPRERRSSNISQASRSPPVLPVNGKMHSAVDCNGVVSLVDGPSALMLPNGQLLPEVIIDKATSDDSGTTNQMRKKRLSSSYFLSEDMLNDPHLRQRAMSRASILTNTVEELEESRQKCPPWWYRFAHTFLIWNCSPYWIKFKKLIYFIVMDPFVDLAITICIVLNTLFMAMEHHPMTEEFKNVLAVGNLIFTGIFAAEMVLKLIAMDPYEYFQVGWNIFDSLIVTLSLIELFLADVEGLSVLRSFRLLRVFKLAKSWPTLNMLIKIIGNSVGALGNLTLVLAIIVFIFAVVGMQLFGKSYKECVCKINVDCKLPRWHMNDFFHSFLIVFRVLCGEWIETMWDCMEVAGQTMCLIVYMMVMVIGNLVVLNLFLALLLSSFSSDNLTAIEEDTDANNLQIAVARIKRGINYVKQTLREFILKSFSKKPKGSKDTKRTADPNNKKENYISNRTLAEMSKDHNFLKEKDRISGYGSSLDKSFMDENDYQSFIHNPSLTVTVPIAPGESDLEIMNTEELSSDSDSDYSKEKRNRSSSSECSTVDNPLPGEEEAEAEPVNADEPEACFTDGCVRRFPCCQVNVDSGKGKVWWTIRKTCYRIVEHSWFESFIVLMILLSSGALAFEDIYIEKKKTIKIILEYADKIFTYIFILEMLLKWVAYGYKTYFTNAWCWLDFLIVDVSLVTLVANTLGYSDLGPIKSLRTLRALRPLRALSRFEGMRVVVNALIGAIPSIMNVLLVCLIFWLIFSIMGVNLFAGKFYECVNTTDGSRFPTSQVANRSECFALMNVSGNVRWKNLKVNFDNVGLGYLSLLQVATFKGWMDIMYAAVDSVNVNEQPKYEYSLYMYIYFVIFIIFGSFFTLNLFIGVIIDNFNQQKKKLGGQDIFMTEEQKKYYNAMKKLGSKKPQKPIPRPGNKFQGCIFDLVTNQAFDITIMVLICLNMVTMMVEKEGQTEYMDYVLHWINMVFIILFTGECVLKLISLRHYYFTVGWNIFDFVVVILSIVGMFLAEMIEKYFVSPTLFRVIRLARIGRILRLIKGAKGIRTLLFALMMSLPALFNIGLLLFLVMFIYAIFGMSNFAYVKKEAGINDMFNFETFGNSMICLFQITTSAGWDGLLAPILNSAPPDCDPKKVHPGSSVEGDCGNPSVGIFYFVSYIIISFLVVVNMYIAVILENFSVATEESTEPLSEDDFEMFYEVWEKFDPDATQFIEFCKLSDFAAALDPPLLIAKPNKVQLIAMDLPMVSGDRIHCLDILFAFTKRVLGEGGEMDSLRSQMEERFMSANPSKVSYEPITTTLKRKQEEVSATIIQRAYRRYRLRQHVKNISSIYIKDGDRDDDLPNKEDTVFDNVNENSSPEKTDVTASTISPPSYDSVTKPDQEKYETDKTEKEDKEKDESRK

Regarding `NCC1(CC(=O)O)CCCCC1` [gabapentin], the pain reduction in assay [1] was at most 50%.

B1: CA167_00983: rabbit anti-Nav1.7 monoclonal antibody, B11-specific; VH SEQ ID NO:148, VL SEQ ID NO:147 (antibody, V domains shown)
VH: QSVEESGGRLVTPGTPLTLTCTVSGFSLSNYAMSWVRQAPGKGLEWIGIIGKSGSTAYASWAKGRFTISRTSTTVDLEITSPTTEDTATYFCVRFVLLWGPGTLVTVS
VL: AQVLTQTASPVSAAVGGTVTINCQSSQSVYKNNDLAWYQQKPGQPPKLLIYYASTLASGVSSRFKGSGSGTEFTLTISDAQCDDAATYYCLGSYDCSSADCNAFGGGTKVVVK
modifications: derived from rabbit
In the case of B1, the “ELISA binding to Nav 1.7 peptide (B11.7)” value in assay [2] is on record as “specific binding”. Further, the “dose dependence of inhibition of rat Nav1.7 currents” value in assay [3] (repeated voltage step protocol, end point) is listed as “dose-dependent inhibition”. In addition, the “human Nav1.7 current when stimulated only at the end of the protocol” value in assay [4] (25 μg/ml, stimulation only at end, after incubation of antibody) is “does not produce an inhibition of the Nav1.7 current”. In assay [4] (25 μg/ml, voltage step protocol at 0.1 Hz for ~20 minutes), the “human Nav1.7 currents under repeated activation” value is listed as “reduced in the presence of the antibody (25 μg/ml) but only when repeated activation of the channel at 0.1 Hz is maintained”. The “dose dependence of inhibition of human Nav1.7 currents” value in assay [4] is reported as “dose-dependent inhibition”. Also, in assay [5], the “number of evoked action potentials” value is “significantly reduced”. The “ELISA binding to Mouse domain B loop E1 peptide B11” value in assay [6] is given as “binding”. For the same molecule, the “ELISA binding to Human domain B loop E1 peptide B11” value in assay [7] is given as “binding”.

B2: CA167_01080: rabbit anti-Nav1.7 monoclonal antibody, B11-specific; VH SEQ ID NO:176, VL SEQ ID NO:175 (antibody, V domains shown)
VH: QSLEESGGRLVTPETPLTLTCTASGIDLSKWPMTWVRQAPGKGLEWIGIIGRSGSTNYASWAKGRFTISKTSTTVDLKMTSPTTEDTATYFCARGGSYYDLWGQGTLVTVS
VL: AQVLTQTASPVSAAVGNTVTITCQSSQSVWKNNDLSWYQQKLGQPPKLLIYYASTLASGVSSRFKASGSGTQFTLTISDVQCDDAGTYYCVGSYDCSSADCNAFGGGTKVVVK
modifications: derived from rabbit
Regarding B2, in assay [2], the “ELISA binding to Nav 1.7 peptide (B11.7)” value is on record as “specific binding”. Further, the “inhibition of rat Nav1.7 currents” value in assay [3] (25 μg/ml) was around 26%. The “dose dependence of inhibition of human Nav1.7 currents” value in assay [4] was “dose-dependent inhibition”. Besides, the “electrically induced spike frequency of DRG neurons” value in assay [5] (normalized to frequency at time 0) is “reduces”. In addition, in assay [6], the “ELISA binding to Mouse domain B loop E1 peptide B11” value is given as “binding”. In addition, the “ELISA binding to Human domain B loop E1 peptide B11” value in assay [7] is on record as “binding”.

B3: CA167_00932: rabbit anti-Nav1.7 monoclonal antibody, A32-specific; VH SEQ ID NO:140, VL SEQ ID NO:139 (antibody, V domains shown)
VH: QSLEESGGRLVTPGTPLTLTCTVSGFSLSRYWMSWVRQAPGKGLEWIGNIGGGSGSTLYAPWAKGRSTISKTSTTVDLKITSPTTEDTATYFCGRYVKNGGGYRLDLWGPGTLVTVS
VL: AAVLTQTPSSVSAAVGGTVTIKCQSSQSVYNNNEFSWYQQKPGQPPKLLIYDASKLASGVPSRFSGSGSGTQFTLTISGVQCDDVATYYCLGGYNDDTNRWAFGGGTEVVVE
modifications: derived from rabbit
Take B3: in assay [5], the “number of evoked action potentials” value is “significantly reduced”.

The values are drawn from patent US8986954B2, “DNA encoding function modifying Nav1.7 antibodies” (UCB Pharma S.A., priority 2009, dated 2015).
